The RNAGym collection of RNA variant scans (doi:10.7554/elife.80360)

B1: HDV Ribozyme (parent)
chain: GGCCGGCAUGGUCCCAGCCUCCUCGCUGGCGCCGGCUGGGCAACAUUCCGAGGGGACCGUCCCCUCGGUAAUGGCGAAUGGGACCCA

Variants of: B1
Test: self-cleavage, relative activity (ratio to wild type); higher = more cleavage; co-transcriptional

Row | Variant | self-cleavage
1 | GGCCGGCAUGGUCCCAGCCUCCUCGCUCGCGCCGGCUGGGCAACAUUCCGAGGGGACCGUCCCCUCGGUAAUGGCCAAUGGGACCCA [G28C G76C] | 0.136
2 | GGCCGGCAUGGUCCCAGCCUCCUCGCUCGCGCCGACUGGGCAACAUUCCGAGGGGACCGUCCCCUCGGUAAUGGCGAAUGGGACCCA [G28C G35A] | 0.0326
3 | GGCCGGCAUGGUCCCAGCCUCCUCGCUCGCGCCGUCUGGGCAACAUUCCGAGGGGACCGUCCCCUCGGUAAUGGCGAAUGGGACCCA [G28C G35U] | 0.0997
4 | GGCCGGCAUGGUCCCAGCCUCCUCGCUCGCGCCGCCUGGGCAACAUUCCGAGGGGACCGUCCCCUCGGUAAUGGCGAAUGGGACCCA [G28C G35C] | 0.0554
5 | GGCCGGCAUGGUCCCAGCCUCCUCGCUCGCGCAGGCUGGGCAACAUUCCGAGGGGACCGUCCCCUCGGUAAUGGCGAAUGGGACCCA [G28C C33A] | 0.106
6 | GGCCGGCAUGGUCCCAGCCUCCUCGCUCGCGCUGGCUGGGCAACAUUCCGAGGGGACCGUCCCCUCGGUAAUGGCGAAUGGGACCCA [G28C C33U] | 0.232
7 | GGCCGGCAUGGUCCCAGCCUCCUCGCUCGCGACGGCUGGGCAACAUUCCGAGGGGACCGUCCCCUCGGUAAUGGCGAAUGGGACCCA [G28C C32A] | 0.154
8 | GGCCGGCAUGGUCCCAGCCUCCUCGCUCGCGGCGGCUGGGCAACAUUCCGAGGGGACCGUCCCCUCGGUAAUGGCGAAUGGGACCCA [G28C C32G] | 0
9 | GGCCGGCAUGGUCCCAGCCUCCUCGCUCGCGCCGGCUGGGCAACAUUCCGAGUGGACCGUCCCCUCGGUAAUGGCGAAUGGGACCCA [G28C G53U] | 0.123
10 | GGCCGGCAUGGUCCCAGCCUCCUCGCUCGCGCCGGCUGGGCAACAUUCCGAGAGGACCGUCCCCUCGGUAAUGGCGAAUGGGACCCA [G28C G53A] | 0.0941
11 | GGCCGGCAUGGUCCCAGCCUCCUCGCUCGCGCCGGCUGGGCAACAUUCCGAGCGGACCGUCCCCUCGGUAAUGGCGAAUGGGACCCA [G28C G53C] | 0
12 | GGCCGGCAUGGUCCCAGCCUCCUCGCUCGCGCCGGCUGGGCAACAUUCCGAGGGGACCGUCCCCUCGGUAAUGGAGAAUGGGACCCA [G28C C75A] | 0.113
13 | GGCCGGCAUGGUCCCAGCCUCCUCGCUCGCGCCGGCUGGGCAACAUUCCGAGGGGACCGUCCCCUCGGUAAUGGUGAAUGGGACCCA [G28C C75U] | 0.0361
14 | GGCCGGCAUGGUCCCAGCCUCCUCGCUCGCGCCGGCUGGGCAACAUUCCGAGGGGACCGUCCCAUCGGUAAUGGCGAAUGGGACCCA [G28C C64A] | 0.104
15 | GGCCGGCAUGGUCCCAGCCUCCUCGCUCGCGCCGGCUGGGCAACAUUCCGAGGGGACCGUCCCUUCGGUAAUGGCGAAUGGGACCCA [G28C C64U] | 0.198
16 | GGCCGGCAUGGUCCCAGCCUCCUCGCUCGCGCCGGCUGGGCAACAUUUCGAGGGGACCGUCCCCUCGGUAAUGGCGAAUGGGACCCA [G28C C48U] | 0.0978
17 | GGCCGGCAUGGUCCCAGCCUCCUCGCUCGCGCCGGCUGGGCAACAUUCCGAGGGGACCGUCCCCUCGGUAGUGGCGAAUGGGACCCA [G28C A71G] | 0.222
18 | GGCCGGCAUGGUCCCAGCCUCCUCGCUCGCGCCGGCUGGGCAAGAUUCCGAGGGGACCGUCCCCUCGGUAAUGGCGAAUGGGACCCA [G28C C44G] | 0
19 | GGCCGGCAUGGUCCCAGCCUCCUCGCUCGCGCCGGCUGCGCAACAUUCCGAGGGGACCGUCCCCUCGGUAAUGGCGAAUGGGACCCA [G28C G39C] | 0
20 | GGCCGGCAUGGUCCCAGCCUCCUCGCUCGCGCCGGCUGAGCAACAUUCCGAGGGGACCGUCCCCUCGGUAAUGGCGAAUGGGACCCA [G28C G39A] | 0.0744
21 | GGCCGGCAUGGUCCCAGCCUCCUCGCUCGCGCCGGCUGGGCAACAUUCCGAGGGGACCGUCCCCUCGUUAAUGGCGAAUGGGACCCA [G28C G68U] | 0.0426
22 | GGCCGGCAUGGUCCCAGCCUCCUCGCUCGCGCCGGCUGGGCAACAUUCCGAGGGGACCGUCCCCUCGCUAAUGGCGAAUGGGACCCA [G28C G68C] | 0.138

Row | Variant | self-cleavage
23 | GGCCGGCAUGGUCCCAGCCUCCUCGCUCGCGCCGGCUGGGCAACAUUCCGAGGGGACCGUCCCCUCGGUAAUGGCGACUGGGACCCA [G28C A78C] | 0.0852
24 | GGCCGGCAUGGUCCCAGCCUCCUCGCUCGCGCCGGCUGGGCAACAUUCCGAGGGGACCGUCCUCUCGGUAAUGGCGAAUGGGACCCA [G28C C63U] | 0.0369
25 | GGCCGGCAUGGUCCCAGCCUCCUCGCUCGCGCCGGCUGGGCAACAUUCCGAGGGGACCGUCCCCUCGGUAAUGGCGAAUGGGACACA [G28C C85A] | 0.0475
26 | GGCCGGCAUGGUCCCAGCCUCCUCGCUCGCGCCGGCUGGGCAACAUUCUGAGGGGACCGUCCCCUCGGUAAUGGCGAAUGGGACCCA [G28C C49U] | 0.111
27 | GGCCGGCAUGGUCCCAGCCUCCUCGCUCGCGCCGGCUGGGCAACAUUCCGAGGGGACCGUCCCCUCGGUAAUCGCGAAUGGGACCCA [G28C G73C] | 0.148
28 | GGCCGGCAUGGUCCCAGCCUCCUCGCUCGCGCCGGCUGGGCAACAUUCCGAGGGGACCGUCCCCUCGGUAAUUGCGAAUGGGACCCA [G28C G73U] | 0.154
29 | GGCCGGCAUGGUCCCAGCCUCCUCGCUCGCGCCGGCUGGGCAACAUUCCGAGGGGACCGUCCCCUCGGUAAUGGCGAAUAGGACCCA [G28C G80A] | 0.193
30 | GGCCGGCAUGGUCCCAGCCUCCUCGCUCGCGCCGGCUGGGCAACAUUCCGAGGGGACCGUCCCCUCGGUUAUGGCGAAUGGGACCCA [G28C A70U] | 0.101
31 | GGCCGGCAUGGUCCCAGCCUCCUCGCUCGCGCCGGCUGGGCAACAUUCCGAGGGGACCGUCCCCUCGGUCAUGGCGAAUGGGACCCA [G28C A70C] | 0.104
32 | GGCCGGCAUGGUCCCAGCCUCCUCGCUCGCGCCGGCUGGGCAACAUUCCGAGGGGACCGUCCCCUCGGUGAUGGCGAAUGGGACCCA [G28C A70G] | 0
33 | GGCCGGCAUGGUCCCAGCCUCCUCGCUCGCGCCGGCUGGGCAACAUUCCGACGGGACCGUCCCCUCGGUAAUGGCGAAUGGGACCCA [G28C G52C] | 0.229
34 | GGCCGGCAUGGUCCCAGCCUCCUCGCUCGCGCCGGCUGGGCAACAUUCCGAUGGGACCGUCCCCUCGGUAAUGGCGAAUGGGACCCA [G28C G52U] | 0.0831
35 | GGCCGGCAUGGUCCCAGCCUCCUCGCUCGCGCCGGCUGGCCAACAUUCCGAGGGGACCGUCCCCUCGGUAAUGGCGAAUGGGACCCA [G28C G40C] | 0.113
36 | GGCCGGCAUGGUCCCAGCCUCCUCGCUCGCGCCGGCUGGGCAACAUUCCGAGGGGACCGUCCCCUCGGUAAUGGCGAAUGGGAUCCA [G28C C84U] | 0.0396
37 | GGCCGGCAUGGUCCCAGCCUCCUCGCUCGCGCCGGCUGGGCAACAUUCCGAGGGGACCGUCCCCUCGGUAAUGGCGAAUGGGACCAA [G28C C86A] | 0.0583
38 | GGCCGGCAUGGUCCCAGCCUCCUCGCUCGCGCCGGCUGGGCAACAUUCCGAGGGGACCGUCCCCUCGGUAAUGGCGAAUGGGACCGA [G28C C86G] | 0.0692
39 | GGCCGGCAUGGUCCCAGCCUCCUCGCUCGCGCCGGCUGGGCAACAUUCCGAGGGGACCAUCCCCUCGGUAAUGGCGAAUGGGACCCA [G28C G59A] | 0.185
40 | GGCCGGCAUGGUCCCAGCCUCCUCGCUCGCGCCGGCUGGGCAACAUUCCGAGGGGACCUUCCCCUCGGUAAUGGCGAAUGGGACCCA [G28C G59U] | 0.0678
41 | GGCCGGCAUGGUCCCAGCCUCCUCGCUCGCGCCUGCUGGGCAACAUUCCGAGGGGACCGUCCCCUCGGUAAUGGCGAAUGGGACCCA [G28C G34U] | 0.0386
42 | GGCCGGCAUGGUCCCAGCCUCCUCGCUCGCGCCCGCUGGGCAACAUUCCGAGGGGACCGUCCCCUCGGUAAUGGCGAAUGGGACCCA [G28C G34C] | 0.156
43 | GGCCGGCAUGGUCCCAGCCUCCUCGCUCGCGCCGGCUGGGCAACAUUCCGAGGGGUCCGUCCCCUCGGUAAUGGCGAAUGGGACCCA [G28C A56U] | 0.138
44 | GGCCGGCAUGGUCCCAGCCUCCUCGCUCGCGCCGGCUGGGCAACAUUCCGAGGGGGCCGUCCCCUCGGUAAUGGCGAAUGGGACCCA [G28C A56G] | 0.107

Row | Variant | self-cleavage
45 | GGCCGGCAUGGUCCCAGCCUCCUCGCUCGCGCCGGCUGGGCAACAUUCCGAGGGGACCGUCCCCUCGGUAAUGUCGAAUGGGACCCA [G28C G74U] | 0.0692
46 | GGCCGGCAUGGUCCCAGCCUCCUCGCUCGCGCCGGCUGGGCAACAUUCCGAGGGGACCGUCCCCUCGGUAAUGCCGAAUGGGACCCA [G28C G74C] | 0.151
47 | GGCCGGCAUGGUCCCAGCCUCCUCGCUCGCGCCGGCUGGGCAACAUUCCGAGGGGACCGUCUCCUCGGUAAUGGCGAAUGGGACCCA [G28C C62U] | 0.0369
48 | GGCCGGCAUGGUCCCAGCCUCCUCGCUCUCGCCGGCUGGGCAACAUUCCGAGGGGACCGUCCCCUCGGUAAUGGCGAAUGGGACCCA [G28C G29U] | 0
49 | GGCCGGCAUGGUCCCAGCCUCCUCGCUCGCGCCGGCUGGGCAACAUUCCGAGGGGACCGUCCCCUCGGUAAUGGCGUAUGGGACCCA [G28C A77U] | 0.107
50 | GGCCGGCAUGGUCCCAGCCUCCUCGCUCGCGCCGGCUGGGCAACAUUCCGAGGGGACCGUCCCCUCGGUAAUGGCGAAUGGGUCCCA [G28C A83U] | 0.0437
51 | GGCCGGCAUGGUCCCAGCCUCCUCGCUCGCGCCGGCUGGGCAACAUUCCGAGGGGACCGUCCCCUCGGUAAUGGCGAAUGGGCCCCA [G28C A83C] | 0
52 | GGCCGGCAUGGUCCCAGCCUCCUCGCUCGCGCCGGCUGGGCAACAUUCCGAGGGGACCGUCCCCUCGGUAAUGGCGAAUGGGGCCCA [G28C A83G] | 0.0542
53 | GGCCGGCAUGGUCCCAGCCUCCUCGCUCGCGCCGGCUGGGCAACAUUCCCAGGGGACCGUCCCCUCGGUAAUGGCGAAUGGGACCCA [G28C G50C] | 0.0437
54 | GGCCGGCAUGGUCCCAGCCUCCUCGCUCGCGCCGGGUGGGCAACAUUCCGAGGGGACCGUCCCCUCGGUAAUGGCGAAUGGGACCCA [G28C C36G] | 0.0773
55 | GGCCGGCAUGGUCCCAGCCUCCUCGCUCGCGCCGGCUGGGCAACAUUCCGAGGGGACCGUUCCCUCGGUAAUGGCGAAUGGGACCCA [G28C C61U] | 0.185
56 | GGCCGGCAUGGUCCCAGCCUCCUCGCUCGCGCCGGCUGGGCAACAUUCCGAGGGAACCGUCCCCUCGGUAAUGGCGAAUGGGACCCA [G28C G55A] | 0.18
57 | GGCCGGCAUGGUCCCAGCCUCCUCGCUCGCGCCGGCUGGGCAACAUUCCGAGGGUACCGUCCCCUCGGUAAUGGCGAAUGGGACCCA [G28C G55U] | 0.196
58 | GGCCGGCAUGGUCCCAGCCUCCUCGCUCGCGCCGGCUGGGCAACAUUCCGAGGAGACCGUCCCCUCGGUAAUGGCGAAUGGGACCCA [G28C G54A] | 0.0639
59 | GGCCGGCAUGGUCCCAGCCUCCUCGCUCGCGCCGGCUGGGCAACAUUCCGAGGGGACCGUCCCCUCGGUAAUGGCGAAUGGGACCCG [G28C A87G] | 0.125
60 | GGCCGGCAUGGUCCCAGCCUCCUCGCUCGCGCCGGCUGGGCAACAUUCCGAGGGGACCGUCCCCUCGGUAAUGGCGAAUGGGACCCU [G28C A87U] | 0.0455
61 | GGCCGGCAUGGUCCCAGCCUCCUCGCUCGCGCCGGCUGGGCAACAUUCCGAGGGGACCGUCCCCUCGGUAAUGGCGAAUGGGACCCC [G28C A87C] | 0.0987
62 | GGCCGGCAUGGUCCCAGCCUCCUCGCUCGCGCCGGCUGGGCAACAUUCCGAGGGGAACGUCCCCUCGGUAAUGGCGAAUGGGACCCA [G28C C57A] | 0
63 | GGCCGGCAUGGUCCCAGCCUCCUCGCUCGCGCCGGCUGGGCAACAUUCCGAGGGGAGCGUCCCCUCGGUAAUGGCGAAUGGGACCCA [G28C C57G] | 0.115
64 | GGCCGGCAUGGUCCCAGCCUCCUCGCUCGCGCCGGCUGGGCAACAUUCCGAGGGGACCGUCCCCUGGGUAAUGGCGAAUGGGACCCA [G28C C66G] | 0.13
